Test [1] addresses rat ANP receptor (NPR-A) (rat) (UniProt P18910). As to the kind of experiment: cell-based or functional assay.
The target of test [2] is rat CNP receptor (NPR-B) (rat) (UniProt P16067). Description: cell-based or functional assay.
Sequence of rat CNP receptor (NPR-B) (rat) (P16067 17-1047): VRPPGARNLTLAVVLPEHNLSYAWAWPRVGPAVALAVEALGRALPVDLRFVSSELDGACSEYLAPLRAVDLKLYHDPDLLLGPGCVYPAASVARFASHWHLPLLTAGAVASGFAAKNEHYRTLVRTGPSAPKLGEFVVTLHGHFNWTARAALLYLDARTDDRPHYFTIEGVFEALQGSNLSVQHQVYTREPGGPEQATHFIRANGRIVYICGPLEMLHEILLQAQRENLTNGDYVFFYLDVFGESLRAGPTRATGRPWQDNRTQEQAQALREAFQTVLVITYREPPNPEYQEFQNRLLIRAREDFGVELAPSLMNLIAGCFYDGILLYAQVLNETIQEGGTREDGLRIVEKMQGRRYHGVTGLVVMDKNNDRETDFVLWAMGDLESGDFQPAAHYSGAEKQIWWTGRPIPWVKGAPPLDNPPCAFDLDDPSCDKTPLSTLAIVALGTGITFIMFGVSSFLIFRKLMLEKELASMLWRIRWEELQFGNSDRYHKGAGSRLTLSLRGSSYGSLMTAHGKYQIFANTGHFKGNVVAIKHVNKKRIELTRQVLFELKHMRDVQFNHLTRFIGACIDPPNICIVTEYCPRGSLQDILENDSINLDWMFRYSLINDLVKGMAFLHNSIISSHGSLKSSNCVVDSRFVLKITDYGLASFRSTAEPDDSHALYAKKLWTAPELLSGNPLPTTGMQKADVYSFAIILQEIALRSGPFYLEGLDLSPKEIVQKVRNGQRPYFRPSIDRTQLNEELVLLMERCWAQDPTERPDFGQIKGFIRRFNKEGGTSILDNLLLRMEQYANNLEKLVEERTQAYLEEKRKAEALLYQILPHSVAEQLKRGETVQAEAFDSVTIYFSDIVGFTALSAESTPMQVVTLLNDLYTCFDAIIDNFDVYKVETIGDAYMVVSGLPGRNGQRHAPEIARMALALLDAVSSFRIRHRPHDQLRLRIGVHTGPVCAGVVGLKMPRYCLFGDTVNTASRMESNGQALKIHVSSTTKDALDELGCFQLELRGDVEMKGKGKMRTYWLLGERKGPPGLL

Sequence of rat ANP receptor (NPR-A) (rat) (P18910 29-1057): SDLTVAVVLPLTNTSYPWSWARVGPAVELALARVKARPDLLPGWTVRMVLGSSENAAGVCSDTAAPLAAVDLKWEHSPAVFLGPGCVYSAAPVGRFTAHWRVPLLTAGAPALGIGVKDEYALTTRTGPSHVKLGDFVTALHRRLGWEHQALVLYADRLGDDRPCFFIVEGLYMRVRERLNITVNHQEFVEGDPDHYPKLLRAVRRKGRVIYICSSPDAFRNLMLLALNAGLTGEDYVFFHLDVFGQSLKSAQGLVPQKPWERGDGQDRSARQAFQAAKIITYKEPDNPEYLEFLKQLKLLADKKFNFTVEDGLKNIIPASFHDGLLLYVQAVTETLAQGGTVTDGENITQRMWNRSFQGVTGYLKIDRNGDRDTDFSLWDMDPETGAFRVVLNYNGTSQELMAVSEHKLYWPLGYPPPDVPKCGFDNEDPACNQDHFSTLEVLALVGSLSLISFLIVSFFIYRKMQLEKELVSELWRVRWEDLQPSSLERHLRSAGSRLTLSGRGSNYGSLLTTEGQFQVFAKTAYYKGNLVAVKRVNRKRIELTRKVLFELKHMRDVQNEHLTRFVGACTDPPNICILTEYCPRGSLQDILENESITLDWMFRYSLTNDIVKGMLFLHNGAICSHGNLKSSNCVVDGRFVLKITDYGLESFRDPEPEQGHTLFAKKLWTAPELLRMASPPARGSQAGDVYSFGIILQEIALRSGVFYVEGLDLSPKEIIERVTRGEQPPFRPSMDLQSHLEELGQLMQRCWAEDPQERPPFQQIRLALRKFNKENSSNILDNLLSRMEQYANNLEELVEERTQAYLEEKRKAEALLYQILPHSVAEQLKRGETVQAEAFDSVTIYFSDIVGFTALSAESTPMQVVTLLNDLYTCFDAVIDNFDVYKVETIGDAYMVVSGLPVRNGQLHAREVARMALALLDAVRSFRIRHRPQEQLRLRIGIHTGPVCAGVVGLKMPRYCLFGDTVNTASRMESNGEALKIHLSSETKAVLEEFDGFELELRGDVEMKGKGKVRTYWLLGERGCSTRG

ANP (Bachem, H-2100) (peptide): the EC50, fluorescence of cGMP reporter cells in test [1] is 0.22 nM.
On the same count and under the same terms, in the case of BNP (Bachem, H-5968) (peptide) it was 2.9 nM.
Turning to CNP (Bachem, H-1296) (peptide), in test [2], the EC50, luminescence of cGMP reporter cells amounted to 0.024 nM.

Source of the values: patent US20210079056A1.
